Experimental data from patent publication US20260022166A1 (JIANGSU HENGRUI MEDICINE, published 2026).
Residue numbers refer to the chain shown, from its start.

B1: hu119-03 (antibody, human IgG1, kappa)
heavy: EVQLVQSGAEVKKPGSSVKVSCKASGFTFSTYNMHWVKHAPGQGLEWIGAIYPGNGETSYNQKFKDRATLTVDKSTSTAYMELSSLRSEDTAVYYCAREDDYGEGYFDVWGQGTTVTVSSASTKGPSVFPLAPSSKSTSGGTAALGCLVKDYFPEPVTVSWNSGALTSGVHTFPAVLQSSGLYSLSSVVTVPSSSLGTQTYICNVNHKPSNTKVDKKVEPKSCDKTHTCPPCPAPELLGGPSVFLFPPKPKDTLYITREPEVTCVVVDVSHEDPEVKFNWYVDGVEVHNAKTKPREEQYNSTYRVVSVLTVLHQDWLNGKEYKCKVSNKALPAPIEKTISKAKGQPREPQVYTLPPSRDELTKNQVSLTCLVKGFYPSDIAVEWESNGQPENNYKTTPPVLDSDGSFFLYSKLTVDKSRWQQGNVFSCSVMHEALHNHYTQKSLSLSPGK
light: DIVMTQSPDSLAVSLGERATINCRASESVDNSGLSFMHWYQQKPGQPPKLLIYRASNLGSGVPDRFSGSGSGTDFTLTISSLQAEDVAVYYCQQINTDPLTFGQGTKLEIKRTVAAPSVFIFPPSDEQLKSGTASVVCLLNNFYPREAKVQWKVDNALQSGNSQESVTEQDSKDSTYSLSSTLTLSKADYEKHKVYACEVTHQGLSSPVTKSFNRGEC
notes: humanized, IgG1-YTE/kappa
B2: hu119-07 (antibody, human IgG1, kappa)
heavy: B1 heavy
light: B1 light with M4L
notes: humanized, IgG1-YTE/kappa
B3: hu119-11 (antibody, human IgG1, kappa, V domains shown)
VH: EVQLVQSGAEVKKPGSSVKVSCKASGFTFSTYNMHWVKHAPGQGLEWIGAIYPGNGETSYNQKFKDRATLTVDKSTSTAYMELSSLRSEDTAVYYCAREDDYGEGYFDVWGQGTTVTVSS
VL: DIVMTQSPDSLAVSLGERATINCRASESVDNSGLSFMHWYQQKPGQPPKLLLYRASNLGSGIPDRFSGSGSGTDFTLTISSLQAEDVAVYYCQQINTDPLTFGQGTKLEIKR
notes: humanized, IgG1-YTE/kappa
B4: hu3-13 (antibody, human IgG1, kappa, V domains shown)
VH: EVQLVQSGAEVKKPGASVKVSCKASGYTFTDDYMNWVRQAPGQRLEWMGIISPYNGGTSYNQKFKGRVTLTVDKSASTAYMELSSLRSEDTAVYYCAREDYDYDGYAMDYWGQGTTVTVSS
VL: EIVLTQSPATLSLSPGERATLSCRASSSVSYMHWYQQKPGQAPRPWIYATSNLASGVPARFSGSGSGTSYTLTISRLEPEDFAVYYCQQSDSGREFGGGTKVEIKR
B5: hu179-08 (antibody, human IgG1, kappa)
heavy: EVQLVQSGAEVKKPGSSVKVSCKASGYTFSNYLIEWVRQAPGQGLEWIGVIDPGNGDTNYNENFKGRATLTADKSTSTAYIELSSLRSEDTAVYYCAREDNTGTAFDYWGQGTTVTVSSASTKGPSVFPLAPSSKSTSGGTAALGCLVKDYFPEPVTVSWNSGALTSGVHTFPAVLQSSGLYSLSSVVTVPSSSLGTQTYICNVNHKPSNTKVDKKVEPKSCDKTHTCPPCPAPELLGGPSVFLFPPKPKDTLYITREPEVTCVVVDVSHEDPEVKFNWYVDGVEVHNAKTKPREEQYNSTYRVVSVLTVLHQDWLNGKEYKCKVSNKALPAPIEKTISKAKGQPREPQVYTLPPSRDELTKNQVSLTCLVKGFYPSDIAVEWESNGQPENNYKTTPPVLDSDGSFFLYSKLTVDKSRWQQGNVFSCSVMHEALHNHYTQKSLSLSPGK
light: DIVMTQTPLSLSVTPGQPASISCKASQSVSSDVTWYLQKPGQSPQLLIYYVSNHYTGVPDRFSGSGSGTDFTLKISRVEAEDVGVYYCQQHHRFPLTFGQGTKLEIKRTVAAPSVFIFPPSDEQLKSGTASVVCLLNNFYPREAKVQWKVDNALQSGNSQESVTEQDSKDSTYSLSSTLTLSKADYEKHKVYACEVTHQGLSSPVTKSFNRGEC
notes: humanized, IgG1-YTE/kappa
B6: hu179-33 (antibody, human IgG1, kappa, V domains shown)
VH: EVQLVQSGAEVKKPGSSVKVSCKASGYTFSNYLIEWVRQAPGQGLEWIGVIDPGVGDTNYNENFKGRATLTADKSTSTAYIELSSLRSEDTAVYYCAREDNTGTAFDYWGQGTTVTVSS
VL: SIVMTQTPLSLSVTPGQPASISCKASQSVSSDVTWYLQKPGQSPQLLIYYVSEHYTGVPDRFSGSGYGTDFTLKISRVEAEDVGVYYCQQHHRFPLTFGQGTKLEIKR
B7: AMG157 (antibody, human IgG2, lambda, V domains shown)
VH: QMQLVESGGGVVQPGRSLRLSCAASGFTFRTYGMHWVRQAPGKGLEWVAVIWYDGSNKHYADSVKGRFTITRDNSKNTLNLQMNSLRAEDTAVYYCARAPQWELVHEAFDIWGQGTMVTVSS
VL: SYVLTQPPSVSVAPGQTARITCGGNNLGSKSVHWYQQKPGQAPVLVVYDDSDRPSWIPERFSGSNSGNTATLTISRGEAGDEADYYCQVWDSSSDHVVFGGGTKLTVLG
B8: hu119-13 (antibody, human IgG1, kappa, V domains shown)
VH: B3 VH
VL: EIVLTQSPATLSLSPGERATLSCRASESVDNSGLSFMHWYQQKPGQAPRLLIYRASNLGSGIPARFSGSGSGTDFTLTISSLEPEDFAVYYCQQINTDPLTFGQGTKLEIKR
notes: humanized, IgG1-YTE/kappa
B9: hu119-30 (antibody, human IgG1, kappa, V domains shown)
VH: B3 VH with V2A, K38R, H39Q, S77R
VL: B8 VL with E1D, N31S, A47P, I52L
B10: hu119-18 (antibody, human IgG1, kappa)
heavy: B1 heavy
light: EIVLTQSPATLSLSPGERATLSCRASESVDNSGLSFMHWYQQKPGQPPRLLLYRASNLGSGIPARFSGSGSGTDFTLTISSLEPEDFAVYYCQQINTDPLTFGQGTKLEIKRTVAAPSVFIFPPSDEQLKSGTASVVCLLNNFYPREAKVQWKVDNALQSGNSQESVTEQDSKDSTYSLSSTLTLSKADYEKHKVYACEVTHQGLSSPVTKSFNRGEC
notes: humanized, IgG1-YTE/kappa
B11: hu199-36 (antibody, human IgG1, kappa, V domains shown)
VH: EVQLVQSGAEVKKPGASVKVSCKASGYTFTTYWMHWVKQAPGQGLEWMGMIDPSDSETTLIQKFKDKVTLTVDKSTSTAYMELSSLRSEDTAVYYCARTLDGYYDYWGQGTTVTVSS
VL: DIQMTQSPSSLSASVGDRVTITCRASENIYSYLAWYQQKPGKSPQLLVYFAKTLAEGVPSRFSGSVSGTQFTLTISSLQPEDFATYYCQHHYGTPWTFGGGTKVEIKR

How the values were obtained:
[1] = biological target: T1, His-tagged human TSLP antigen (huTSLP-his) (human); test: ELISA, coated huTSLP-his
T1 construct: also called Human TSLP-his
Protocol: After discarding the liquid, 200 μl/well of blocking solution with 5% skimmed milk (Bright Dairy skimmed milk powder) diluted in PBS was added and incubated in a 37° C. incubator for 2 hours for blocking. After blocking was over, the blocking solution was discarded, and the plates were washed with PBST buffer (PBS containing 0.1% tween-20, pH 7.4) for 3 times. […] After incubation was over, the plates were washed with PBST for 3 times. […] After washing the plate with PBST for 6 times, 50 μl/well TMB chromogenic substrate (KPL, 52-00-03) was added and incubated at room temperature for 10-15 min, and 50 μl/well 1 M H₂SO₄ was added to stop the reaction. The absorption value was read by using a NOVOStar microplate reader at 450 nm.

native TSLP = native TSLP (human, UniProt Q969D9 29-159); test: cell-based or functional assay
[2] = biological target: Fc-tagged human TSLP antigen (huTSLP-Fc) (human); test: cell-based or functional assay

Binder	EC50 [1]	IC50 of inhibiting the proliferation of BaF3-TLSPR/IL7R cells induced by native TSLP (native TSLP)	IC50 of inhibiting TSLP-induced proliferation of BaF3 cells overexpressing TSLPR/IL7R [2]
B1	159 pM	–	–
B2	213 pM	–	–
B3	174 pM	–	–
B4	–	289 pM	444 pM
B5	1020 pM	–	–
B6	–	22.8 pM	409 pM
B7	–	–	573 pM
B8	344 pM	–	–
B9	–	1530 pM	430 pM
B10	346 pM	–	–
B11	–	–	476 pM
